# According to US11001838B2, “Platform for screening phosphomevalonate decarboxylase” (The Regents of the University of California, priority 2017, dated 2021):
# T1: Saccharomyces cerevisiae diphosphomevalonate decarboxylase (PMDsc), wild type, SEQ ID NO: 1 (Saccharomyces cerevisiae, UniProt P32377)
# T1 sequence (P32377 1-396): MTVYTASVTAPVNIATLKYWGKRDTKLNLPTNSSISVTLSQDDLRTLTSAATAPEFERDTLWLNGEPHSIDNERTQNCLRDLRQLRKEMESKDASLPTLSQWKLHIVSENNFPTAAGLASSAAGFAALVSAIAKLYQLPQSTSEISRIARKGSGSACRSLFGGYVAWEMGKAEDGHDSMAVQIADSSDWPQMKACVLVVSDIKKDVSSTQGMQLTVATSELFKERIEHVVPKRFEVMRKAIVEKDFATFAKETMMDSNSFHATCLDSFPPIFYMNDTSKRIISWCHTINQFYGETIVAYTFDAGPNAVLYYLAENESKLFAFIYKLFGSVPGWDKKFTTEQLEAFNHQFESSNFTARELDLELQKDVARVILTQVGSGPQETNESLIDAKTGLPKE
# T2: Saccharomyces cerevisiae diphosphomevalonate decarboxylase (PMDsc, SEQ ID NO: 1) variant R74G (Saccharomyces cerevisiae, UniProt P32377, R74G)
# T2 sequence (P32377 1-396 R74G): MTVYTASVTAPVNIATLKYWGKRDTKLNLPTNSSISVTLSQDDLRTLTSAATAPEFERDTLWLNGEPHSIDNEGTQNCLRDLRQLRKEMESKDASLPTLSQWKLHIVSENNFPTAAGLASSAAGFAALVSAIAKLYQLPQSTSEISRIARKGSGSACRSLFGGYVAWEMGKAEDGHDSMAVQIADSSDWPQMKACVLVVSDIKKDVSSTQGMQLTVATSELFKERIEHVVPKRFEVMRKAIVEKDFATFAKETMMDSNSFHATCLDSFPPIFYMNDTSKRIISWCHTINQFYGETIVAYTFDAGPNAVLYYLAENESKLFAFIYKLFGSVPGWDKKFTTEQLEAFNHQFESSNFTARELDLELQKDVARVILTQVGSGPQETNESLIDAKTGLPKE
# T3: Saccharomyces cerevisiae diphosphomevalonate decarboxylase (PMDsc, SEQ ID NO: 1) variant Y19H (Saccharomyces cerevisiae, UniProt P32377, Y19H)
# T3 construct: His tag; made in house; host or cells: E. coli Rosetta (DE3)
# T3 sequence (P32377 1-396 Y19H): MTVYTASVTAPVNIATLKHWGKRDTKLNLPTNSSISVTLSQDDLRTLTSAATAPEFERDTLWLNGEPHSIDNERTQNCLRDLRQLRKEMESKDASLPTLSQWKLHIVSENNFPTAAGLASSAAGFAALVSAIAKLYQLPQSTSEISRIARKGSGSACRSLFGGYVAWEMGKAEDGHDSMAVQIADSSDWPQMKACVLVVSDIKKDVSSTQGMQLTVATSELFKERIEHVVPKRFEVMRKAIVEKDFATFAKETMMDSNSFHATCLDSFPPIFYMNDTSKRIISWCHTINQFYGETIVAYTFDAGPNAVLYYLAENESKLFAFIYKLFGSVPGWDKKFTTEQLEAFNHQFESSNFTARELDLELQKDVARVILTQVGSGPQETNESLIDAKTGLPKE
# T4: Saccharomyces cerevisiae diphosphomevalonate decarboxylase (PMDsc, SEQ ID NO: 1) variant M212Q (Saccharomyces cerevisiae, UniProt P32377, M212Q)
# T4 construct: His tag; made in house; host or cells: E. coli Rosetta (DE3)
# T4 sequence (P32377 1-396 M212Q): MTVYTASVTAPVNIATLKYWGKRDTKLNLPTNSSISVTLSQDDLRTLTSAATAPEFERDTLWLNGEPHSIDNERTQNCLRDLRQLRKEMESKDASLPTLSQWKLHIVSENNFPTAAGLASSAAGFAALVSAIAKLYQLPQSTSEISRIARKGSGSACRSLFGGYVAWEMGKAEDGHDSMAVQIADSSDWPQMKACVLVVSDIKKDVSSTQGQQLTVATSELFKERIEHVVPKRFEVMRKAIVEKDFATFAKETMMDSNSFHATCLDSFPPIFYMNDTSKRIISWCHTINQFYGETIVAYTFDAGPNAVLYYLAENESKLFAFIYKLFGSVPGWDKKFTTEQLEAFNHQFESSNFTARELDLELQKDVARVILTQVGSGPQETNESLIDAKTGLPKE
# Columns and labels:
# [1] = molecular target: T1, Saccharomyces cerevisiae diphosphomevalonate decarboxylase (PMDsc), wild type, SEQ ID NO: 1; design: His tag; made in house; host or cells: E. coli (Rosetta (DE3) is stated for the mutant plasmids); details: Kang et al., 2016, Krepkiy and Miziorko, 2004, cited from earlier work
# [2] = molecular target: T2, Saccharomyces cerevisiae diphosphomevalonate decarboxylase (PMDsc, SEQ ID NO: 1) variant R74G; assay: In vitro kinetics of MVAP decarboxylation by PMDsc R74G (coupled assay)
# Procedure: (§1) This turnover number (kobs) depends upon each mutant's kcat, KM, and KI, yielding a more accurate assessment of the turnover conditions in vivo (Kang et al., 2016).
# (§2) In vitro enzyme kinetics of PMDsc were performed as described in the previous study (Kang et al., 2016). Briefly, enzymatic activity was determined by a spectrophotometric assay quantifying ADP product formation via the pyruvate kinase/lactate dehydrogenase coupled enzyme assay. Assay mixtures were prepared in 150 μL total volume containing 50 mM HEPES-KOH (pH 7.5), 10 mM MgCl2, 400 μM phosphoenolpyruvate, 400 μM NADH, 4 mM ATP, and 25 U of pyruvate kinase/lactate dehydrogenase. The reaction was initiated by enzyme after incubating PMDsc substrate and cofactor for fifteen minutes with coupled assay components. The MVAP was varied from 0.100-4.0 mM, and the reaction velocity was determined by monitoring the absorbance at 340 nm in a Spectramax 384plus microplate reader (Molecular Devices, USA). To obtain kinetic data relevant to non-competitive substrate inhibition, MVAP was varied from 0.100-100 mM. Enzyme concentration (ε=56,630 M^−1 cm^−1) was determined spectrophotometrically at 280 nm with a NanoDrop ND-1000 spectrophotometer. kcat and KM were derived for PMDsc mutants by fitting the initial velocities measured from 0.100-4.0 mM MVAP to the Michaelis-Menten equation; KI was determined for select mutants by fitting initial velocities measured from 0.100-100 mM MVAP to the non-competitive substrate inhibition equation. All kinetic analysis was performed in Graphpad Prism, version 7.0a.
# [3] = molecular target: T3, Saccharomyces cerevisiae diphosphomevalonate decarboxylase (PMDsc, SEQ ID NO: 1) variant Y19H; assay: In vitro kinetics of MVAP decarboxylation by PMDsc Y19H (coupled assay); type: biochemical
# [4] = molecular target: T4, Saccharomyces cerevisiae diphosphomevalonate decarboxylase (PMDsc, SEQ ID NO: 1) variant M212Q; assay: In vitro kinetics of MVAP decarboxylation by PMDsc M212Q (coupled assay); type: biochemical; details: MVAP 0.100-4.0 mM, 4 mM ATP, pH 7.5; brackets: standard error
# [5] = molecular target: T1, Saccharomyces cerevisiae diphosphomevalonate decarboxylase (PMDsc), wild type, SEQ ID NO: 1; assay: In vitro kinetics of MVAP decarboxylation by PMDsc WT (pyruvate kinase/lactate dehydrogenase coupled assay)
# Procedure: as §1, §2
# [6] = substrate: C[C@@](O)(CCOP(=O)(O)O)CC(=O)O; assay: In vitro kinetics of MVAP decarboxylation by PMDsc R74H (coupled assay); type: biochemical, Saccharomyces cerevisiae; details: other: MVAP 0.100-4.0 mM, 4 mM ATP, pH 7.5, brackets: standard error
# E. coli DH1 [7] = assay: Isopentenol production in E. coli via IPP-bypass MVA pathway (GC-FID); type: cell-based, Escherichia coli; details: 48 hr
# [8] = previous study (Kang 2015); cited from earlier work
# E. coli DH1 [9] = details: from a previous study (Kang et al., 2016); cited from earlier work
# E. coli DH1 [10] = assay: Growth of E. coli DH1 under the screening conditions (MEP pathway blocked by fosmidomycin, IPP-bypass pathway + IPK)
# [11] = MVAP 0.100-4.0 mM, 4 mM ATP, pH 7.5, brackets: standard error
# [12] = observed turnover number calculated at 100 mM MVAP, noncompetitive substrate inhibition
molecule,measurement,setting,value
"C[C@@](O)(CCOP(=O)(O)O)CC(=O)O [MVAP, mevalonate 5-phosphate]",kcat (MVAP),[1]; alternative substrate MVAP,0.14 s⁻¹
same,kcat,[2]; [11],0.14 s⁻¹
same,kobs,[2]; [12],0.07 s⁻¹
same,kcat/KM,[3]; [11],780 ± 60 M⁻¹ s⁻¹
same,increase of kcat/KM compared to wild type,"[3]; Y19H versus wild type PMDsc, MVAP",about 10 fold
same,kcat/KM,[4],500 ± 100 M⁻¹ s⁻¹
same,Km,[5]; [11],2300 µM
same,kcat,[5]; [11],0.15 s⁻¹
same,kobs,[5]; [12],0.02 s⁻¹
"C[C@@](O)(CCOP(=O)(O)OP(=O)(O)O)CC(=O)O [MVAPP, mevalonate 5-diphosphate]",kcat (MVAPP),[1]; original substrate MVAPP,5.4 s⁻¹
"Saccharomyces cerevisiae diphosphomevalonate decarboxylase (PMDsc, SEQ ID NO: 1) variant R74H (Saccharomyces cerevisiae S288C; R74H) (protein, His tag; made in house; host or cells: E. coli Rosetta (DE3)) MTVYTASVTAPVNIATLKYWGKRDTKLNLPTNSSISVTLSQDDLRTLTSAATAPEFERDTLWLNGEPHSIDNEHTQNCLRDLRQLRKEMESKDASLPTLSQWKLHIVSENNFPTAAGLASSAAGFAALVSAIAKLYQLPQSTSEISRIARKGSGSACRSLFGGYVAWEMGKAEDGHDSMAVQIADSSDWPQMKACVLVVSDIKKDVSSTQGMQLTVATSELFKERIEHVVPKRFEVMRKAIVEKDFATFAKETMMDSNSFHATCLDSFPPIFYMNDTSKRIISWCHTINQFYGETIVAYTFDAGPNAVLYYLAENESKLFAFIYKLFGSVPGWDKKFTTEQLEAFNHQFESSNFTARELDLELQKDVARVILTQVGSGPQETNESLIDAKTGLPKE",Km,[6],0.75 (0.05) mM
same,kcat,[6],0.33 (0.03) sec^−1
same,kcat/Km,[6],0.44 (0.05) mM^−1 sec^−1
same,48 hr Titer (isopentenol),E. coli DH1 [7],770 (263) mg/L
same,activity of WT for phosphomevalonate (MVAP),[8],220%
same,isopentenol titer,E. coli DH1 [9],770.3 mg/L
same,"competitive growth of mixed culture (WT, K22M, R74H)","E. coli DH1 [10]; 10 μM fosmidomycin, several dilutions, sequencing",dominant strain
same,Growth rate,E. coli DH1 [10]; 10-fold higher inducer concentration (100 nM aTc),0.83±0.01 hr^1
same,Growth rate,"E. coli DH1 [10]; Table 2, screening conditions, standard deviation in brackets",0.68 (0.04) hr^−1
same,Growth rate,E. coli DH1 [10]; screening conditions,0.68 ± 0.04 h⁻¹
same,growth under fosmidomycin selection pressure,E. coli DH1 [10]; screening platform,grew faster than the strain with WT PMDsc
